{"source": "a protein production outcome set (Wang et al. 2014)"}
{"test": "label from the status in PepcDB records"}
{"sequence": "AADQVLELVRPFLEELRNISQETAVLGKRQDGQVIYLDVALSHQPIRYHVQVGESRAAHTNSIGKAIFPMLDEKEQKALLAKANWRALTSRTIATREAFLRDMAQTKARGWSSNVGESVEDLAAVALPFQLASEWYAVSIVGPYERMERNWDAHVETLLQTGARLRQAIAVHEGQ", "protein production": "failed"}
{"sequence": "AALVRQHLDALPAASVPDLPAMARLLCTSVRTLKRRLQEEGTCYRQVLAGHRGARALELLGNPRLSLSQVAERLGFSDLSSFSQSFKRWFGVAPSVYRQERCG", "protein production": "failed"}
{"sequence": "AASEAEYGKVSKAWTLHADGSQEYRSSMELTLFTHTAMNSTYGESFIVYNPDFQTLKIHSSYTRQKDGTIVKTPDNAFVEVLPRFAADAPAYNQLKEMVVVHTGLELGATIYLDYSIITKPGYYPALDINERLQETSPVKECKVSISVPEGTPLACGLYGSPVKAVEESHDGIKEVHWTLRNIPASSREAFQPKNREASPHLVASTYPSGKAALATLDKRLKESQGYESKTFAQFLTDKSGNEQEKVNIIRDHILNNLSTCPIPMAMTGYTVRDIDTVLRSAYGTPLEIAQLLNVMLNAAGIPSEVLAVYPGHLDTDACGLAAIQTLAVKATVDGKDQYLSASPLTNRGGLDKVVSLSGTSIEIETTPIQIKESRSVAISADQAKDGFAICVLPAISAGIDSWGMSALNSKRSNLFELPSLIREEVTYTVTPAEGMKLQTSTQEQVISKPFGKVTRTITPRGNTIEVVRTIELNKQQFTPAEYSDVRSLIHEWTNPDNRVLLFSL", "protein production": "not failed"}
{"sequence": "AEIFTTLSCEPDIPNPPRIANRTKNSLTLQWKAPSDNGSKIQNFVLEWDEGKGNGEFCQCYMGSQKQFKITKLSPAMGCKFRLSARNDYGTSGFSEEVLYYTSGC", "protein production": "not failed"}
{"sequence": "AHAPQRISGLALFDPAGVEAPETSDLQHLLEQGKNPFLVRSRADFQHFYSLTMAAPPWVPEAVLAAIAERYQARRGQLARIFAELQASPPMEPELAKIQAPTLLLWGREDRLLHPSSAQVWAKGLPQAQVQLWEGIGHMPMVERPVRSARLYQQFLER", "protein production": "failed"}
{"sequence": "AIAAASLGEFEWCVATNTFRISPRLAKLSGIPEGELDSQGGNALYAYIHPDDREAVRANIDRQLAQSGRFTAEYRRTPLEHGGETWNSVAGVMLMDADGQPSRLIGVVQDITPRKL", "protein production": "failed"}
{"sequence": "AIADSKSHGWLIGANGTILETHDGGEHWEPRTFDFLRMDEEINYRFESISCYGNEGWIVGKPPILLHTQNGGKDWERIPLSSKLPGEPVLITALGPNRAELATTAGAIYTTDNGGKNWKALVKETIDATLNRTTSSGVTGASYYTGTVISITRDCNGYYLAISSRGNFYVTWHPGQEYWTPHPRDSSRRIQSMGFVQNDIHKGLWMANNGGFLGFSPPNPSLDTVSSIPFQRVDIRTGGYGILDVAFHQQKRNEVWASVGSGILYRSFDGGKHWEKDPWLDHLGSVLYRIKFVENSGFILGAKGTLLRYNG", "protein production": "not failed"}
{"sequence": "AIAKLPISTISPIHYMKSVVSSRETRNESNKSRRTFASTEWNKIIRETLYLETVYIPVDATSHSPDIIFKLQSPVEPKVLTVGVACKGRWKSEGIGWSDIIDEAKKFLDPVYDQVLSSAMDYHHCMLIIVSTKLSLNVSNELGNQSRCYSSGMFIGGDSFKVPDNCELVILCERDVQMLIDKEILNGLERAFCVSHNPTFWDFGLDLLDRIRNSFLSWQ", "protein production": "failed"}
{"sequence": "AIANDDRATAFNALKNKTVCVQGDGNSRQFYHALVEILSNHSSAIPVNKNGNDFCNAPFAQCPQDTYYFDLVDKSDNLSVKLYWRWAPEFSDIECPMKVPSGFTPGSNYSFPSGPDTLSCDINIMDAGQWELFEKDANVTTAGYSQGVSNLSKCFSSDKSAKYFWIAAYALTPEQLQIHLPYNNTDVERINEVATQGLNSTACVLNGYDVTVNAFNDTKEATTDGIHYLGWINEQVVHLFFNAVTNSSAPTVPSSNVSVTSPNVQLGQVPNLNPSTTNSFLPVQTIVTVPSSSATSASSGLNFGGSSQGGGSGIPQL", "protein production": "failed"}
{"sequence": "AIASQFDPDKFKQEQKARWNQGARSTWTLWKQTQVEDTPAKFFLGLVPIRPGVKVLDLACGSGETSLQVAQLVSSHLPSDSKDAKIVCVDISEEMLRVLSQRAQELGLSSVVETCCEDAENINFGTHYFDMVMSQFGVMFLPHLPEDLANIRKMMKPGSLFCCVVWGEEKDCHIFYAARSVVSPPPPPPGTPVSYGTKEKVMEALRKAEFSDVKAVEFQVVHETKDAEEYITLMSGVNQWLEKSLGEKGSGPWQKLVEYCNNSYRTSRGTLQFPNVCVGITAIA", "protein production": "failed"}
{"sequence": "AIDVSAKSAIIIDGASGRVLYAKDEHQKRRIASITKIMTAVLAIESGKMDQTVTVSANAVRTEGSAIYLTEGQKVKLKDLVYGLMLRSGNDAAVAIAEHVGGSLDGFVYMMNQKAEQLGMKNTRFQNPHGLDDHENHYSTAYDMAILTKYAMKLKDYQKISGTKIYKAETMESVWKNKNKLLTMLYPYSTGGKTGYTKLAKRTLVSTASKDGIDLIAVTINDPNDWDDHMKMFNYVFEHYQTYLIAKKGDIPKLKGTFYESKAFIKRDITYLLTEEEKENVKINTTLLKPKKAWEKDASKIPDIVGHMEIMFNDATIAKVPIYYENERHQK", "protein production": "not failed"}
{"sequence": "ALAETVSDFRLPNGLEVVVIEDHRAPVVTHMVWYRVGAADEPPGHSGIAHFLEHLMFKGTDEMSAGEFSATVEAQGGDDNAFTSWDYTAYFQRVAADRLDLMMKMEADRMRDLQMTEEDVRTERQVVLEERSQRTDSDPGAVFSEQSRAAAYLNHPYGIPIIGWRHEIEQLGREDAFSFYRTYYAPNNAILVVAGDVDPAEVRRMAEEHYGALEPTP", "protein production": "failed"}
{"sequence": "ALLQTPEFVEEFILDRTMNPAVREFGYEELKMIDPTCGSGHFVLGAFRRLVRLGGENQPGKDVHQRVRAALDSVHGVDINPFAVAIARFRLLVAAMAASGVRTLDEASKYEWPVHLAVGDSLIKSGSQQGSLFGESDDDLTDELAEFKYATEDVGEHPEMLRPGRYHVVVGNPPYITVKDKSLNALYRELYPACAGKYALSVPFAQRFFELAKREDAEGSGYGMVGQITANSFMKREFGTKLIEGYFGHAVELTEVIDTSGAYIPGHGTPTVILVGTRRGGDGR", "protein production": "failed"}
{"sequence": "ALRTELGLNVSGGGKTNQYYFSAGYLNDKGIALESGYERFNLRSNVTSQMTKWLRGGVNMSFAHSLQNYPVSSDTKTSNVINAGRLMNGFYPIYQMNEDGTYKLDSEGQRMYDFGSYRPSGSMANWNLPATLPNDKSERMKDEFSGRTFLEVTFIEGLKFKTSFNFDLINYNSLDYTNPKIGPAVNTGGSSSRENDRTFSWTWNNILTYDKTLGEHHFNLLAGQEAYSYRYDVLRASRSNMALPDFPELAVGSLVTGGTGYRVDYSLVGYFLNAQYDYQSKYFFSGSYRRDGSSRFAPETRWGNFWSVGASWRIDREDFMVAASDWLSALTLKVSYGAQGNDNLGTYYASSGLYSVVSNNGENALVSDRLATPKLKWETNLNFNAGIDFSLFNNRFSGSFDFFQRRSKDLLYSRPLAPSLGYNSVDENVGELKNTGVEIDLKGTLIHTRDFMWRLGLNLTHYKNVVTDLPLKDMP", "protein production": "failed"}
{"sequence": "ANKKIDHREEAIELLKQDAKRILQLIKVQMDNLTLPQCPAYEEVLDTQMYGLSREINFATRLGLIEPEEGKKLISTLEKELSALHELSMSK", "protein production": "failed"}
{"sequence": "ANLISPVCDMGSAVTAPVYAAILAYRDAVTQILGAPADFAQMMADEAISQILDLMRNEGIKNMEDKLNPKALTGTADSMCFGPLADILPASLKVLEKHANENKCECGCSIKP", "protein production": "failed"}
{"sequence": "APEERDLTQEQTEKLLQFQDLTGIESMDQCRHTLEQHNWNIEAAVQDRLNEQEG", "protein production": "not failed"}
{"sequence": "APHGPGLIYRQPNCDDPETEEAALVAIDYINQNLPWGYKHTLNQIDEVKVWPQQPSGELFEIEIDTLETTCHVLDPTPVARCSVR", "protein production": "failed"}
{"sequence": "APLYIKVHEIDNTAIIVNDGGLPKGTVFSCGLVLEEDVPQGHKVALTDLNQGDEIVRYGEVIGFADETIKRGSWIREALVRMPAP", "protein production": "not failed"}
{"sequence": "APTSSNDTGKTVVAVTACPTGIAHTYMAAEKLQETANKLGVRIKVETNGSRGVENRLTDKEIAEADGVIIAADVQVDMPRFDGKHLIAKPVAAGIHKPEELIKEAISGNAPVYKAESGSEATEST", "protein production": "not failed"}
{"sequence": "AQSDGWSPKDHNLIKSVREDGRFLSSYGVVHAMLRNTEPRYAFHRDFSPKEFRKWQKGLRHAMEEIMKFPQIKNSPAPVCIKREQREGYRLEKWEFYPLPKCVSTFLVLIPDNINKPVPAILCIPGSGGNKEGLAGEPGIAPKLNDRYKDPKLTQALNFVKEGYIAVAVDNPAAGEASDLERYTLGSNYDYDVVSRYLLELGWSYLGYASYLDMQVLNWMKTQKHIRKDRIVVSGFSLGTEPMMVLGTLDTSIYAFVYNDFLCQTQERAEVMTMPDKNGRRPFPNSIRHLIPDFWKNFNFPDIVAALAPRPIILTEGGLDRDLDLVRKAYAIVGTPDNVKIYHYKKFSDPDTRKNVEYLPEGLDRNEYFRMVNVDGPNHYFKSELVVPWLRKLLEER", "protein production": "not failed"}
{"sequence": "ARQVTPGQVMVASTVGKLSALLAADLSDEQAQRLGLDTLLPLRESDGPTLFCFHPASGFAWQFSVLARYLSPRWSITGIQSPRPQGPMASAASLDEVCEHHLQTLLAQQPHGPYYLFGYSLGGTLAQGIAARLRQRGEAVAFLGLLDTWPPETQNWAEKEANGLDPEVLAEIDREREAFLAAQQGQASGELFSAIEGNYADAVRLLTTAHSAKFDGKATLFVAEKTRQEGMDPQVVWGPWVGELEVFSQNCAHVDIISPQAFEAIGPVVREILG", "protein production": "not failed"}
{"sequence": "ASIVGSWVEPVPGLEGQVQGIKMEEGGVASSVNMATLVYESWKQEGTKLILTGKSIGNGQTIEFVDTMDIKRLTADSLVLDNQGMEIRYAKQK", "protein production": "not failed"}
{"sequence": "ASLLARYPPEKLFQAERNFNAAQDLDVSLLEGDLVGVIKKKDPMGSQNRWLIDNGVTKGFVYSSFLKPYNPRRSHSDAS", "protein production": "not failed"}
{"sequence": "ATFFIKMNQKTVPEFKNKHLRLAISQAINKKGYVNSVLNDGSLPSNNFTGVGTADTPDGKDFARTIKSPLKFNPDLAKKNWREAQKELGKNKFTFTMNTQDTPASKIAAEYIKSQIESHLPGVTLKIKQMPFKQKTTLELANNYEASYSGWSPDYPDPTAFLQTMTKNNAQNNTDWSNKEYDQLLKDANSKLLRKLGERNTSLQKAEYILLHEAPVAPVYQ", "protein production": "failed"}
{"sequence": "ATPPISNLTKTASESISNLSEAGSIKKGERELKIGDRVLVGGTKAGVVRFLGETDFAKGEWCGVELDEPLGKNDGAVAGTRYFQCQPKYGLFAPVHKVTKIGFPSTTPAKAKANAVRRVMATTSASLKRSPSASSLSSMSSVASSVSSRPSRTGLLTET", "protein production": "not failed"}
{"sequence": "ATSYMTCSAYQKVQDSEISFPAGVEVQVLEKQESGWWYVRFGELEGWAPSHYLVLDENEQPDPSGKE", "protein production": "not failed"}
{"sequence": "CGGCGEDVVGDGAGVVALDRVFHVGCFVCSTCRAQLRGQHFYAVERRAYCEGCYVATLE", "protein production": "not failed"}
{"sequence": "CTFKSVADEWVKTKTKLKPKTVQGNWRKLELYAFPKFGEIPVKSLTPIIVQEAFRPIARRGKLETVKRTIQLVNEIMRFAINSGLIQHNVLSGVG", "protein production": "failed"}
{"sequence": "CVECRKPIGADSKEVHYKNRFWHDTCFRCAKCLHPLANETFVAKDNKILCNKCTTREDSPKCKGCFKAIVAGDQNVEYKGTVWHKDCF", "protein production": "not failed"}
{"sequence": "DAPPAWLRCLAATYPVLAPLPNWGLSESRFRPVRAVANAGALPVVLTRVGREMPEIAATVEEFLAAAKDCGADVEVVDVPHGHHGFETIDLTDESRTAVRHALRTVL", "protein production": "failed"}
{"sequence": "DDAGKTAIYWLGYDLPPEIPTIVILHTITGTPSSMRELVRDLHQHTGWRIALCVRRGHADLEFSVPRFNLFGSVSDLKQQLDYIQNHFPQSNLYGVGSSAGSGLLVRYLGEEADEAYFKAAFAFCPGYNTETGFEKVHPVYSQYMAKKLLKTFVYKYIDSWQHVENLEEVLSSKNLTEFHLRYYKLAGFKNYQEYSLATNPMHVFKNIKIPLMVLNSQDDPVCHIDNFEPYIPEIQKLSNIVVVTTKKGSHCAFYEGWTPQSWASRLMANYFLQHHQ", "protein production": "failed"}
